Source: FireProtDB (doi:10.1016/s0014-5793(99)01395-2)

Settings: Escherichia phage lambda, pH 7, Thermal, Fluorescence, phosphate buffer 100 mM, reversible: yes, whole UniProt chain shown

B1: Endolysin wild type, P03706 (protein)
chain: MVEINNQRKAFLDMLAWSEGTDNGRQKTRNHGYDVIVGGELFTDYSDHPRKLVTLNPKLKSTGAGRYQLLSRWWDAYRKQLGLKDFSPKSQDAVALQQIKERGALPMIDRGDIRQAIDRCSNIWASLPGAGYGQFEHKADSLIAKFKEAGGTVREIDV
- unfolding free energy (25 °C): 7.1 kcal/mol
- Tm: 52.3 °C
- unfolding enthalpy (van 't Hoff): 113 kcal/mol
